In US20260209386A1 (MYTHIC THERAPEUTICS, published 2026):
Numbering of substitutions follows the chain as printed.

T1: Human PTK7 Protein, His Tag (Acro Biosystems) (human, UniProt Q13308 31-704)
T1 construct: Bought His-tagged recombinant human PTK7; also called CCK4; Tyrosine-protein kinase-like 7
T1 sequence: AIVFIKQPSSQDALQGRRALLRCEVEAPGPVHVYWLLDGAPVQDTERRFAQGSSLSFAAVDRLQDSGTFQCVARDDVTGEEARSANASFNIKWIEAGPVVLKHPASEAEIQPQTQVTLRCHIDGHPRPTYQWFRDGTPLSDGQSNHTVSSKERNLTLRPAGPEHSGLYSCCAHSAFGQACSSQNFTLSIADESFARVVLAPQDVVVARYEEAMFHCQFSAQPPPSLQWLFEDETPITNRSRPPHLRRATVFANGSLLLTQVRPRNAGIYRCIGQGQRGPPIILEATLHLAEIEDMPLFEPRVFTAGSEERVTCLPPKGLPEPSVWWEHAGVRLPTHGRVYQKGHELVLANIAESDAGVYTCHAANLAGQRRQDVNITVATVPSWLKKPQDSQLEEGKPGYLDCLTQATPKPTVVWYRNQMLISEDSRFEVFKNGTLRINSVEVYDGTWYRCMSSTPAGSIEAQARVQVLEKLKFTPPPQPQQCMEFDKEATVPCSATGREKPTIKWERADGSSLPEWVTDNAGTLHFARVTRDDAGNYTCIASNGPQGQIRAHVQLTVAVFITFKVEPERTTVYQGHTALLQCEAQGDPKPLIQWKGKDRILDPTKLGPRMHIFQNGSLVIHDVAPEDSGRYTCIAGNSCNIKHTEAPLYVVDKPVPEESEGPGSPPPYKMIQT

T2: Human PTK7 Protein, His Tag, Acro Biosystems (human, UniProt Q13308 31-704)
T2 construct: Bought recombinant protein; also called CCK4; not shown: His tag
T2 sequence: T1 sequence

B1: MYT10951 (antibody, V domains shown)
VH: EVQLVESGGGLVQPGGSLRLSCTASHFSLSSYAMGWVRQAPGKGLEWVGFINAGGNTYYANWAKGRFTISRDTSKNTVYLQMNSLRAEDTAVYFCARRYSRASGWYDLWGQGTLVTVSS
VL: EIVMTQSPSTLSASVGDRVIITCQASQSISSYLAWYQQKPGKAPKLLIYAASTLASGVPSRFSGSGSGAEFTLTISSLQPDDFATYYCQSYSYSSGIDYGDVFGQGTKLTVL
notes: MYT9359 HC variant; captured on anti-human Fc sensor
B2: MYT10957 (antibody, V domains shown)
VH: B1 VH with H26G, Y32H
VL: B1 VL
notes: as for B1
B3: MYT10959 (antibody, V domains shown)
VH: B1 VH with H26G, M34H
VL: B1 VL
notes: as for B1
B4: MYT10962 (antibody, V domains shown)
VH: B1 VH with H26G, I51H
VL: B1 VL
notes: as for B1
B5: MYT10963 (antibody, V domains shown)
VH: B1 VH with H26G, N52H
VL: B1 VL
notes: as for B1
B6: MYT10966 (antibody, V domains shown)
VH: B1 VH with H26G, G55H
VL: B1 VL
notes: as for B1
B7: MYT10969 (antibody, V domains shown)
VH: B1 VH with H26G, Y58H
VL: B1 VL
notes: as for B1
B8: MYT10970 (antibody, V domains shown)
VH: B1 VH with H26G, Y59H
VL: B1 VL
notes: as for B1
B9: MYT10974 (antibody, V domains shown)
VH: B1 VH with H26G, A63H
VL: B1 VL
notes: as for B1
B10: MYT10978 (antibody, V domains shown)
VH: B1 VH with H26G, R97H
VL: B1 VL
notes: as for B1
B11: MYT10980 (antibody, V domains shown)
VH: B1 VH with H26G, Y99H
VL: B1 VL
notes: as for B1
B12: MYT10991 (antibody, V domains shown)
VH: B1 VH with H26G, D107A
VL: B1 VL
notes: MYT9359 HC alanine variant; captured on anti-human Fc sensor
B13: MYT10993 (antibody, V domains shown)
VH: B1 VH with H26G
VL: B1 VL with A25H
notes: MYT9359 LC variant; captured on anti-human Fc sensor
B14: MYT10997 (antibody, V domains shown)
VH: B1 VH with H26G
VL: B1 VL with I29H
notes: as for B13
B15: MYT10998 (antibody, V domains shown)
VH: B1 VH with H26G
VL: B1 VL with S30H
notes: as for B13
B16: MYT10999 (antibody, V domains shown)
VH: B1 VH with H26G
VL: B1 VL with S31H
notes: as for B13
B17: MYT11000 (antibody, V domains shown)
VH: B1 VH with H26G
VL: B1 VL with Y32H
notes: as for B13
B18: MYT11001 (antibody, V domains shown)
VH: B1 VH with H26G
VL: B1 VL with L33H
notes: as for B13
B19: MYT11003 (antibody, V domains shown)
VH: B1 VH with H26G
VL: B1 VL with A50H
notes: as for B13
B20: MYT11004 (antibody, V domains shown)
VH: B1 VH with H26G
VL: B1 VL with A51H
notes: as for B13
B21: MYT11006 (antibody, V domains shown)
VH: B1 VH with H26G
VL: B1 VL with T53H
notes: as for B13
B22: MYT11010 (antibody, V domains shown)
VH: B1 VH with H26G
VL: B1 VL with Q89H
notes: as for B13
B23: MYT11012 (antibody, V domains shown)
VH: B1 VH with H26G
VL: B1 VL with Y91H
notes: as for B13
B24: MYT10919 (antibody, V domains shown)
VH: EVQLVESGGGLVQPGGSLRLSCTASGFSLSNYVMNWVRQAPGKGLEWVGIIDSSGSTYYASWAKGRFTISRDTSKNTVYLQMNSLRAEDTAVYFCARGLYLWGQGTLVTVSS
VL: EIVMTQSPSTLSASVGDRVIITCHSSQSVYNNNLLAWYQQKPGKAPKLLIYYTSNLASGVPSRFSGSGSGAEFTLTISSLQPDDFATYYCQGGYNGNIYAFGQGTKLTVL
notes: MYT9345 variant, His at VL pos 24 (L1 01)
B25: MYT10921 (antibody, V domains shown)
VH: B24 VH
VL: B24 VL with H24Q, S26H
notes: MYT9345 variant, His at VL pos 26 (L1 03)
B26: MYT10922 (antibody, V domains shown)
VH: B24 VH
VL: B24 VL with H24Q, Q27H
notes: MYT9345 variant, His at VL pos 27 (L1 04)
B27: MYT10923 (antibody, V domains shown)
VH: B24 VH
VL: B24 VL with H24Q, S28H
notes: MYT9345 variant, His at VL pos 28 (L1 05)
B28: MYT10924 (antibody, V domains shown)
VH: B24 VH
VL: B24 VL with H24Q, V29H
notes: MYT9345 variant, His at VL pos 29 (L1 06)
B29: MYT10929 (antibody, V domains shown)
VH: B24 VH
VL: B24 VL with H24Q, L34H
notes: MYT9345 variant, His at VL pos 34 (L1 11)
B30: MYT10931 (antibody, V domains shown)
VH: B24 VH
VL: B24 VL with H24Q, A36H
notes: MYT9345 variant, His at VL pos 36 (L1 13)
B31: MYT10932 (antibody, V domains shown)
VH: B24 VH
VL: B24 VL with H24Q, Y52H
notes: MYT9345 variant, His at VL pos 52 (L2 01)
B32: MYT10933 (antibody, V domains shown)
VH: B24 VH
VL: B24 VL with H24Q, T53H
notes: MYT9345 variant, His at VL pos 53 (L2 02)
B33: MYT10934 (antibody, V domains shown)
VH: B24 VH
VL: B24 VL with H24Q, S54H
notes: MYT9345 variant, His at VL pos 54 (L2 03)
B34: MYT10938 (antibody, V domains shown)
VH: B24 VH
VL: B24 VL with H24Q, S58H
notes: MYT9345 variant, His at VL pos 58 (L2 07)
B35: MYT10940 (antibody, V domains shown)
VH: B24 VH
VL: B24 VL with H24Q, G92H
notes: MYT9345 variant, His at VL pos 92 (L3 02)
B36: MYT10941 (antibody, V domains shown)
VH: B24 VH
VL: B24 VL with H24Q, G93H
notes: MYT9345 variant, His at VL pos 93 (L3 03)
B37: MYT10945 (antibody, V domains shown)
VH: B24 VH
VL: B24 VL with H24Q, N97H
notes: MYT9345 variant, His at VL pos 97 (L3 07)
B38: MYT10947 (antibody, V domains shown)
VH: B24 VH
VL: B24 VL with H24Q, Y99H
notes: MYT9345 variant, His at VL pos 99 (L3 09)
B39: MYT10948 (antibody, V domains shown)
VH: B24 VH
VL: B24 VL with H24Q, A100H
notes: MYT9345 variant, His at VL pos 100 (L3 10)

target: T1, Human PTK7 Protein, His Tag (Acro …); experiment: BLI (Octet), antibody on anti-human Fc sensor, 50 nM PTK7; 1 = pH dependent binding

| Binder | binding result |
| --- | --- |
| B1 | binds |
| B2 | binds |
| B3 | binds |
| B4 | binds |
| B5 | binds |
| B6 | binds |
| B7 | binds |
| B8 | binds |
| B9 | binds |
| B10 | binds |
| B11 | binds |
| B12 | binds |
| B13 | binds |
| B14 | binds |
| B15 | binds |
| B16 | binds |
| B17 | binds |
| B18 | binds |
| B19 | binds |
| B20 | binds |
| B21 | binds |
| B22 | binds |
| B23 | binds |

target: T2, Human PTK7 Protein, His Tag, Acro …; experiment: BLI (Octet), antibody on anti-human Fc sensor, 50 nM PTK7 at pH 7.4, dissociation at pH 7.4 or 5.4; 2 = substantially similar binding relative to parent

| Binder | binding result |
| --- | --- |
| B24 | binds |
| B25 | binds |
| B26 | binds |
| B27 | binds |
| B28 | binds |
| B29 | binds |
| B30 | binds |
| B31 | binds |
| B32 | binds |
| B33 | binds |
| B34 | binds |
| B35 | binds |
| B36 | binds |
| B37 | binds |
| B38 | binds |
| B39 | binds |
